This is an account of results in the DeepSol protein solubility set.

The nature of this data set: soluble on expression in E. coli; label from the status in PepcDB or PDB records.
As to “MKRISPLRSLVACRWTNRARKRLAAVGLASICLLSACAPKFDKGEEVVQDKGSKQQEAVIPKYNIADSYYRVILPFKPSGARGEVVNDLNTRLDVDEFETGLMRLATEQFPSDEYLFQEGQYLDSETVGKWLARKKTTRQLKEEKMKPEDNLGLNPPISDTGTNEQKNKQSPIYLASILEHDYLVKIDNDKVKLGGIAIGLALNSVHYYSTEQGYPREVKIKDDVIEREGKRIAAEVLKRLRSMKGLGSVPITIALYKQAPRSSVVPGHFFAVAHVDGGDSTIDEWEAVNEEYYLFPSDEAEENHRDDWLKFNNFKSDVEDFFPNYTGIVGRGLYVNDQLQKLTINITMPFYGKAEVIGFTQYVTGLVMEKFPDYITVNVYIASAGQPESLIVRQAKADEPFVHIYQ”, the “soluble on expression in E. coli” value was “not soluble”.

On to “MQSFNSGSTKIHNAFPEESTRPQKAEGNTAMNILVLGSDSRGSSDADVEANTATDQRADTLMLVHVPADRKKTYAISLMRDLWIDIPGVGESKINAALAYGGVPLMVQTVESLLQQRIDHVAMIDFQGFKGLTDALGGVEVDVRIPFAPSSGPKAGQVYDAGKQTLNGDEALAFVRERKAFSDGDYQRVRNQQAYLKAIIGKVIARETLTNPVTISNMVSAVSPFVSVDKDFDAAAIGSLALSMKDVRAQDTVMFTLPTLGTGTSPDGQSIVLADTTAIADVTAALAKDQVDAYITAHALDKGFLEHHHHHH”, for which the “soluble on expression in E. coli” value is “soluble”.

Take “MAHHHHHHMIDDVRICHLVLQDVKERLPLYESRLEAVNNSHVVISCWNESVKAFVPVPVAEDVEFTSDVLHEVVSLVDGLRQLGCTDFFVVFVDSGGTLSFYHVDTLRLLQSGRSGSS”: the “soluble on expression in E. coli” value is recorded as “not soluble”.

Regarding “MLDDLPGVADNAKKILFDMKCTTVIDDCNVHLRDVLNLLEDEMHSFRLSSIEANDLDKLYDTFYYYGKKEQLIEFLLDQMTNAINFKQADKDFLIYSWLVEKLTEEQICEMLARINENTQYHWNNNLNSFVDEFVAYYKETNGIDLRINYLGAIYTNLKILSDEYTLSISDYELIFKFFEDIIESHSETIFDFQRKYKKDIETNFGNSLENFPKLNKLLFE”, the “soluble on expression in E. coli” value is on record as “not soluble”.

Take “MGSDKIHHHHHHMSNLPLISVVIPTYGREEILRDSIVDVLNQDYPKYEVLVVDQSPKHKPEIETYLEEVAAAGKVKWFRLDWASLPGARNYAIRRASGEIILFIDDDVKLKPGFLAAHAKNYVQNPDVGSVAGRVFDRMKLGDSGGNLEIEYLPPEAMDPGVAWYHIDLVHTIKPQQVLTARGCNMSFRREIFTKHGLRFDERFRGSAVREESDFCLRLRQTGYKIWYDPEADLIHLGEETGGCHDISMRSLKYQFTFYHNHFLLGLKNLNFSQALRLYARLFDCHVLGRPPCHKSGSPIKIITRGIFYILGFFRALGSVIQSNWHDGQIYSRLDQESIIKSQESMVNS”: the “soluble on expression in E. coli” value is “not soluble”.

Turning to “MTVSLLDSSTRYHAVTALNGNVLFSGARRPMPTVMLLHTPPPEFIRSQIQQMVVDYVTDISMVAIAPGNPLYNLYQYGVGYEVHLYLNAMNGSQSLTVELIVALDDEDPETVLGFLLYLPVQDDPQACAVAYMAVLESHRCQGIARLMLDRMVSRYAHAELYCTVAKVPYFQAMGFQVLGARGPQVIMNTRDHGTDGLLAVMDIAPIYSSVEVRQIHAYLLKQHGNTAMLDAEKQRDHHLDRMTREARAFAEQHLENGDSVHGVSATVRLH”, the “soluble on expression in E. coli” value is listed as “not soluble”.

Consider “MGSDKIHHHHHHMTGKLPKACVIGAGCSGFTTIKRLKDYGIPYDCFEMSDEVGGNWYYKNPNGLSACYESLHIDTSKWRLAFEDFPVPKDWPDFPHHAQLFQYFKDYVDHFGLRPTITFNTKVESAKRTADGLWAVTLSGGETQFYDVLFVCNGHHWDPRVPEYPGEFDGPAFHAHAYCDPFDPVDMRGKNVVVVGMGNSAMDIASELSQRPIAKNLWVSARRGVWVFPKYLNGKPADKTALPAWMPRKLGVALSRSVLKKTIGRMEDYGLPKPDHEPLEAHPSVSGEFLTRAGCGDIKFKPAIKALEGKRVRFTDDSVEDVDAIVFATGYKISFPFFDDPALLPDADHRLPLFKRMMKPEVPNLFYMGLAQPLPTLVNFAEQQAKLAAAYLAGQYALPPPAEMARITAKDEHRHTGHFYDSARHTIQVDFNVYCADLKKEIAKGEARARNAGGKLPVAARAEGQALAAE”, for which the “soluble on expression in E. coli” value is recorded as “not soluble”.

As to “SDFVITGGGIVGLATALRLQSLHPGARISVLEKEPAVARHQSGRNSGVIHAGVYYAPGSHKARFCARGVSSTRAFCDEHGIPYRICGKLIVATDAAELERMGTLETRARANGIVIERLSGEEARRLEPNIKAVGALLSPTTGIVDYGRVAERMAELFRDRGGEIRLDTEVTGGAESEAGVRLETTAGEISAGKAVFCGGLHADRLARAFGASLDFRIVPFRGEYFAIKNQPEDLVQHLIYPVPDPARPFLGVHLTRKMNGGFTVGPN”, the “soluble on expression in E. coli” value was “not soluble”.

As for “MSQTNESFAALFEESIARSNMKAGEVISAEVVRIDHNFVVVNAGLKSEAFVPVEEFLNDQGELEVQVGDYVSVAIDALENGYGDTILSRDKAKRLASWLNLEKALESGEIISGTVTGKVKGGLTVMVNGIRAFLPGSLVDVRPIKDTTPYEGKTLEFKVIKLDRKRNNVVLSRRAVVEATLGEERQKLMETLKEGAIVNGIVKNITDYGAFVDLGGIDGLLHITDLAWRRVRHPSEVLSVGQEITAKILKFDQEKNRVSLGVKQLGEDPWVGISRRYPQGTRLFGKVTNLTDYGAFVEIEAGIEGLVHVSEMDWTNKNVAPSKVVQLGDEVEVMVLDIDEDKRRISLGMKQCKANPWDDFARNHKKGDKLAGQIKSITDFGVFIGLPGGIDGLVHLSDLSWQETGEEAVRKYKKGDEVEAVVLAIDVEKERISLGIKQLSGDPFNNFISANDKGSIVSVTIKTVDPKGAVVQLADDVEGYLRASEISSDRVEDARNVLKEGETMTAMIVNIDRKSRNINVSIKAKDSADQQEAMQKFAQDTGTAGTTNLGALLKAKLNETNQLEHHHHHH”, the “soluble on expression in E. coli” value is recorded as “soluble”.

In the case of “MGSDKIHHHHHHMGYRLTRENLNTLFHKLKEDYLIYAPKRLIGKGAFSDTDRVRYDKINNVEEIEFDVKSDFSFKEILLPISETLFFFTEDSVKEAEGPKKGAIIFLRSCDINAVKRLDQIYLKNGFEDHYYKRIREKVKFVLMPCKTSFENCFCVSMGTNQADMYDASVELREEHFYIDNKEEKWKEFLKEVSLEELEVKPSFVMENKTKVKVPEGITTKIFKSKMWDEYDSRCINCGRCNFVCPTCTCFSMQDIFYTDNGKAGERRRVWASCMVDGFTNVAGGGSYRSKNGQRMRFKVMHKVYDYKKRNGYHMCVGCGRCDDICPEYISFSNCINKLKGAIKEVEDNE”, the “soluble on expression in E. coli” value is on record as “not soluble”.

“MSLDYANGNHVLIIPKYKGSLLFTKHKIRGIEFPGGKREKGEASETAAAREVFEETGATIKYCEYIAQYKVDRQIGMSFTKDVFMVEIEAITEQPDYFETDGPLLYKSLSEIPEDKKSYLLKDPAILQCLERVIELGFYSEGHHHHHH”: the “soluble on expression in E. coli” value is “not soluble”.

As to “MAHHHHHHMHRRTLRRLQQVVQNPPVGSANIPSPYATEGGHVPIWSIVNGFVQKRNWVFRNPEWCDLCKEPVALWVNHHGRKDHALMDMHYTQMVEFPRRWNPEEILAVFLEELGLSVEAYQKYYGGYEREHRNELYAMLVALEEAKMLHFGEPRDTYLYRMQGGLRGMDHQGALVLHRYILGPFMRIYPNGHIQDYSNLVDFVTCAYNMETVYDLCGFYTLDKVALKADYKPSSPAALGLGGIAVHSSATHGFAQQAMEKPQQSPQPQPQRHMTVGTGGRSAADMEEEAFSRKAVFVRQLLGQLRWLTLPDEEHPAGHMFPQHLMFLGEICLKSLVAEIVAARLCEYMVRVEPVWRDHGYERVKLDVDKIMRKENDILPEPVKFFYRPMSPKMDDLYSTNRGNLDEALEKAVVAPVSGKGA”, the “soluble on expression in E. coli” value is on record as “soluble”.

With “SKDPAFTALLTTQLQVQREIVNKHNELRKAVSPPASNMLKMEWSREVTTNAQRWANKCTLQHSDPEDRKTSTRCGENLYMSSDPTSWSSAIQSWYDEILDFVYGVGPKSPNAVVGHYTQLVWYSTYQVGCGIAYCPNQDSLKYYYVCQYCPAGNNMNRKNTPYQQGTPCAGCPDDCDKGLCTNSCQYQDLLSNCDSLKNTAGCEHELLKEKCKATCLCENKIY”, the “soluble on expression in E. coli” value is listed as “soluble”.
